Biological target: the molecule itself
Assay: SEC-MALS

B1: miniTRIM37 RING–B-box-2–hcc B-box-2 mutant (other)
chain: MDEQSVESIAEVFRCFICMEKLRDARLCPHCSKLCCFSCIRRWLTEQRAQCPHCRAPLQLRELVNCRWAEEVTQQLDTLQLCSLTKHEENEKDKCENHHEKLSVFCWTCKKCICAQCAAWGGMHGGHTFKPLAEIYEQHVTKVNEEVAKLRRRLMELITERNQVAKRVPKAPPEEKEALIARGKALGEETELLESLLQEVEHQLRSCSKSELISKSSEILMMFQQVHRK
stoichiometry N: 2

From article PMC13477270 (Nature structural & molecular biology, 2025)
